Results as given in PMC11027793 (Molecular cell, 2022).
Read-outs that look alike come from different tables or passages of the source. Where no end group is shown, it is not given here. MBP = not defined here

B4: GST-Mios Ring (785–875) (domain or fragment, UniProt Q9NXC5 785-875, looked up)
chain: CALCLINMGTPVSSCPGGTKSDEKVDLSKDKKLAQFNNWFTWCHNCRHGGHAGHMLSWFRDHAECPVSACTCKCMQLDTTGNLVPAETVQP

Experiments:
Experiment in all cases: pull-down
[1] = target: T1, GST-WDR24 wild-type (full-length) (UniProt Q96S15 1-790)
T1 sequence (looked up): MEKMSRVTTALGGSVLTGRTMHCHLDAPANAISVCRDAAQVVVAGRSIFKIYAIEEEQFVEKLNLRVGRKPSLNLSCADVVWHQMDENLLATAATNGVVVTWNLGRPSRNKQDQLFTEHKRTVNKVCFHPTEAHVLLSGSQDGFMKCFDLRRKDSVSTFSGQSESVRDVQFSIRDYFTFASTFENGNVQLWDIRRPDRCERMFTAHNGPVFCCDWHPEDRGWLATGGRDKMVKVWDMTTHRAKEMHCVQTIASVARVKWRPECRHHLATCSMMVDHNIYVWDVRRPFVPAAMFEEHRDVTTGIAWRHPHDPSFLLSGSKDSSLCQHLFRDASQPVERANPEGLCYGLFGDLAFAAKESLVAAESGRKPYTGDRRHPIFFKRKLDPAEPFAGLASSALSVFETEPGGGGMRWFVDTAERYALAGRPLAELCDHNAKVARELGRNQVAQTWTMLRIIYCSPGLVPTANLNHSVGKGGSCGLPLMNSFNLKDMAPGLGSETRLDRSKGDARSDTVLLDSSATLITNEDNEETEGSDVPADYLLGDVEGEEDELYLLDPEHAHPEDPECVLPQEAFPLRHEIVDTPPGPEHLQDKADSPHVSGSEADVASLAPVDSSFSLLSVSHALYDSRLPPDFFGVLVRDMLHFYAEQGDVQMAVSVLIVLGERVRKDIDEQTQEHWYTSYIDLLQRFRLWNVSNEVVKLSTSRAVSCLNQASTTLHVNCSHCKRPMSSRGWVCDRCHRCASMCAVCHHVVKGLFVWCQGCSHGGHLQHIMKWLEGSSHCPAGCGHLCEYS

[2] = target: T2, Flag-WDR24 purified from HEK293T cells (UniProt Q96S15 1-790)
T2 sequence (looked up): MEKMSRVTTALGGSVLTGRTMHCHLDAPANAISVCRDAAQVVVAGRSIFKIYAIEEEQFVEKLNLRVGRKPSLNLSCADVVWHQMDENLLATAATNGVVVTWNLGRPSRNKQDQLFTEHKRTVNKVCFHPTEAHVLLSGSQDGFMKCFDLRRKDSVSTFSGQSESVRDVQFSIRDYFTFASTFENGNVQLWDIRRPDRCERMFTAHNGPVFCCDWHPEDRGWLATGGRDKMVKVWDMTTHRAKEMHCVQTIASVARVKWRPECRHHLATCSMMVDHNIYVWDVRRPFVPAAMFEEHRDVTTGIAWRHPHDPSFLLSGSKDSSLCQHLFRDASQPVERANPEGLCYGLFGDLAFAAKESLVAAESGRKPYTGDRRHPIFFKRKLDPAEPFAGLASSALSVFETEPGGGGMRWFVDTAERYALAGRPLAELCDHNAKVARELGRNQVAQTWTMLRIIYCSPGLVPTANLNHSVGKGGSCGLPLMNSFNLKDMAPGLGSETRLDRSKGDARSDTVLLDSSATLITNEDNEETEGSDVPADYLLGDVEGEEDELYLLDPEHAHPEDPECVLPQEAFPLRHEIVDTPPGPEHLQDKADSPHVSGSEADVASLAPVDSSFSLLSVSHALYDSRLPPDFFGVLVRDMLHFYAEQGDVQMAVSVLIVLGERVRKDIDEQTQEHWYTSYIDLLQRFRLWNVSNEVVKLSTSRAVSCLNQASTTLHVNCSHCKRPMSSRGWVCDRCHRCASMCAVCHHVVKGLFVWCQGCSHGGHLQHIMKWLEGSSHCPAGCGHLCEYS

GST-WDR59 wild-type = target: T3, GST-WDR59 wild-type (UniProt Q6PJI9 1-974)
T3 sequence (looked up): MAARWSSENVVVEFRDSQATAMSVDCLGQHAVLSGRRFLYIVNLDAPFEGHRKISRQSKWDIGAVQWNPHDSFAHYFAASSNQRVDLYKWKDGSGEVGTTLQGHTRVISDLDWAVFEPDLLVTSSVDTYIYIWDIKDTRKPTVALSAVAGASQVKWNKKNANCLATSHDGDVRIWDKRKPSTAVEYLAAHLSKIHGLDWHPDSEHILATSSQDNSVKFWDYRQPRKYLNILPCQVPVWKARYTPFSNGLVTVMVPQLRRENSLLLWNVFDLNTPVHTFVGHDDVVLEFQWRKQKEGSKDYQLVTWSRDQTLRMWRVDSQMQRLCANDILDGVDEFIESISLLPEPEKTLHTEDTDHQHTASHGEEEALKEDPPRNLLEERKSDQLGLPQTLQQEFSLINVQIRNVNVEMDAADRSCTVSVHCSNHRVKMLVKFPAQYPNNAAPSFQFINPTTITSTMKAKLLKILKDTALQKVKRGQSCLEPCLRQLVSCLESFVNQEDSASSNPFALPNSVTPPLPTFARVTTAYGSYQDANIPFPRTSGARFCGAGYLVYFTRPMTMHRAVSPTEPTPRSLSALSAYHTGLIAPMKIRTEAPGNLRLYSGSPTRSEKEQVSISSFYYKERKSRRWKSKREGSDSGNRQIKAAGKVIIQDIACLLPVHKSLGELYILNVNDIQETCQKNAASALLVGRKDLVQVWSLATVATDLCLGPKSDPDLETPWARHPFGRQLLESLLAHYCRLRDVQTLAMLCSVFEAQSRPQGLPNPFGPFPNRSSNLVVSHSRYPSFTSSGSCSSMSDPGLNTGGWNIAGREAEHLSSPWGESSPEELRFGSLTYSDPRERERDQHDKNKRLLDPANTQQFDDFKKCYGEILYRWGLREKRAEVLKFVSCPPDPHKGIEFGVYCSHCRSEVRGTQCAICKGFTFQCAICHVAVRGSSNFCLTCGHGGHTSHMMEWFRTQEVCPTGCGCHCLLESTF

[3] = target: T4, Flag-WDR59 purified from HEK293T cells (UniProt Q6PJI9 1-974)
T4 sequence (looked up): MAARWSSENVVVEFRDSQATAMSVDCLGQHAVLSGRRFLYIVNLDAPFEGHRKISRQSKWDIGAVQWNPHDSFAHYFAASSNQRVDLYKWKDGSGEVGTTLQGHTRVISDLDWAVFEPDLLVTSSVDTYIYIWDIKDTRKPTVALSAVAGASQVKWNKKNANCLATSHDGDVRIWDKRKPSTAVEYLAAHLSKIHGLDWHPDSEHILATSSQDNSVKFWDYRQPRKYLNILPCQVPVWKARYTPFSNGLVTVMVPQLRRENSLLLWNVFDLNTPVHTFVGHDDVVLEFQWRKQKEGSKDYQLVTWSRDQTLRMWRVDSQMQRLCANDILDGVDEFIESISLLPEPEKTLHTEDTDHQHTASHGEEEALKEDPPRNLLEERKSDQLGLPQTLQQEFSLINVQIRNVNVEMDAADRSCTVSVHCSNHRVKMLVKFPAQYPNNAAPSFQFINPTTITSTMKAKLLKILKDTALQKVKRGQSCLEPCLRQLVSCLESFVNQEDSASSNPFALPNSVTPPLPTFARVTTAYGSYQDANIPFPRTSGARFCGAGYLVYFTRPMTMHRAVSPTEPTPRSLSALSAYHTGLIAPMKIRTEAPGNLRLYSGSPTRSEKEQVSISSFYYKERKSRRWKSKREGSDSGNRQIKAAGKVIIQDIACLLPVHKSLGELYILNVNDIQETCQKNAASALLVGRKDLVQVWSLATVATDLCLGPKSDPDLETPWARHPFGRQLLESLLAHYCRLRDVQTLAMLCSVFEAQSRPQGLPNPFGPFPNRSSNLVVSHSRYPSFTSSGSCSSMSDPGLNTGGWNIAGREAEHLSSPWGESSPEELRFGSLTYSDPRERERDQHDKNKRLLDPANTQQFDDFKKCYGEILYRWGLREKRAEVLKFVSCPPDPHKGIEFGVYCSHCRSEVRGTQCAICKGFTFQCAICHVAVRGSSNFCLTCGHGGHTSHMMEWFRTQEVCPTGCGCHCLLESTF

[4] = target: T2, Flag-WDR24 purified from HEK293T cells; remark: listed apart in the source
GST-Mios Ring (785–875) = target: B4

B1: His6-tag UBE2D3 (enzyme)
chain: not shown
B1: binds [1]; binds [2].

B2: Flag-Mios purified from HEK293T cells (natural protein, UniProt Q9NXC5 1-875, looked up)
chain: MSGTKPDILWAPHHVDRFVVCDSELSLYHVESTVNSELKAGSLRLSEDSAATLLSINSDTPYMKCVAWYLNYDPECLLAVGQANGRVVLTSLGQDHNSKFKDLIGKEFVPKHARQCNTLAWNPLDSNWLAAGLDKHRADFSVLIWDICSKYTPDIVPMEKVKLSAGETETTLLVTKPLYELGQNDACLSLCWLPRDQKLLLAGMHRNLAIFDLRNTSQKMFVNTKAVQGVTVDPYFHDRVASFYEGQVAIWDLRKFEKPVLTLTEQPKPLTKVAWCPTRTGLLATLTRDSNIIRLYDMQHTPTPIGDETEPTIIERSVQPCDNYIASFAWHPTSQNRMIVVTPNRTMSDFTVFERISLAWSPITSLMWACGRHLYECTEEENDNSLEKDIATKMRLRALSRYGLDTEQVWRNHILAGNEDPQLKSLWYTLHFMKQYTEDMDQKSPGNKGSLVYAGIKSIVKSSLGMVESSRHNWSGLDKQSDIQNLNEERILALQLCGWIKKGTDVDVGPFLNSLVQEGEWERAAAVALFNLDIRRAIQILNEGASSEKGDLNLNVVAMALSGYTDEKNSLWREMCSTLRLQLNNPYLCVMFAFLTSETGSYDGVLYENKVAVRDRVAFACKFLSDTQLNRYIEKLTNEMKEAGNLEGILLTGLTKDGVDLMESYVDRTGDVQTASYCMLQGSPLDVLKDERVQYWIENYRNLLDAWRFWHKRAEFDIHRSKLDPSSKPLAQVFVSCNFCGKSISYSCSAVPHQGRGFSQYGVSGSPTKSKVTSCPGCRKPLPRCALCLINMGTPVSSCPGGTKSDEKVDLSKDKKLAQFNNWFTWCHNCRHGGHAGHMLSWFRDHAECPVSACTCKCMQLDTTGNLVPAETVQP
B2: binds (GST-WDR59 wild-type).

B3: GST-fusion protein of full-length wild-type Mios (natural protein, UniProt Q9NXC5 1-875, looked up)
chain: MSGTKPDILWAPHHVDRFVVCDSELSLYHVESTVNSELKAGSLRLSEDSAATLLSINSDTPYMKCVAWYLNYDPECLLAVGQANGRVVLTSLGQDHNSKFKDLIGKEFVPKHARQCNTLAWNPLDSNWLAAGLDKHRADFSVLIWDICSKYTPDIVPMEKVKLSAGETETTLLVTKPLYELGQNDACLSLCWLPRDQKLLLAGMHRNLAIFDLRNTSQKMFVNTKAVQGVTVDPYFHDRVASFYEGQVAIWDLRKFEKPVLTLTEQPKPLTKVAWCPTRTGLLATLTRDSNIIRLYDMQHTPTPIGDETEPTIIERSVQPCDNYIASFAWHPTSQNRMIVVTPNRTMSDFTVFERISLAWSPITSLMWACGRHLYECTEEENDNSLEKDIATKMRLRALSRYGLDTEQVWRNHILAGNEDPQLKSLWYTLHFMKQYTEDMDQKSPGNKGSLVYAGIKSIVKSSLGMVESSRHNWSGLDKQSDIQNLNEERILALQLCGWIKKGTDVDVGPFLNSLVQEGEWERAAAVALFNLDIRRAIQILNEGASSEKGDLNLNVVAMALSGYTDEKNSLWREMCSTLRLQLNNPYLCVMFAFLTSETGSYDGVLYENKVAVRDRVAFACKFLSDTQLNRYIEKLTNEMKEAGNLEGILLTGLTKDGVDLMESYVDRTGDVQTASYCMLQGSPLDVLKDERVQYWIENYRNLLDAWRFWHKRAEFDIHRSKLDPSSKPLAQVFVSCNFCGKSISYSCSAVPHQGRGFSQYGVSGSPTKSKVTSCPGCRKPLPRCALCLINMGTPVSSCPGGTKSDEKVDLSKDKKLAQFNNWFTWCHNCRHGGHAGHMLSWFRDHAECPVSACTCKCMQLDTTGNLVPAETVQP
B3: binds [3].

B4: binds [4]; binds [3].

B5: Flag-Sestrin2 (pRK5-FLAG-Sestrin2) (natural protein, UniProt P58004 1-480, looked up)
chain: MIVADSECRAELKDYLRFAPGGVGDSGPGEEQRESRARRGPRGPSAFIPVEEVLREGAESLEQHLGLEALMSSGRVDNLAVVMGLHPDYFTSFWRLHYLLLHTDGPLASSWRHYIAIMAAARHQCSYLVGSHMAEFLQTGGDPEWLLGLHRAPEKLRKLSEINKLLAHRPWLITKEHIQALLKTGEHTWSLAELIQALVLLTHCHSLSSFVFGCGILPEGDADGSPAPQAPTPPSEQSSPPSRDPLNNSGGFESARDVEALMERMQQLQESLLRDEGTSQEEMESRFELEKSESLLVTPSADILEPSPHPDMLCFVEDPTFGYEDFTRRGAQAPPTFRAQDYTWEDHGYSLIQRLYPEGGQLLDEKFQAAYSLTYNTIAMHSGVDTSVLRRAIWNYIHCVFGIRYDDYDYGEVNQLLERNLKVYIKTVACYPEKTTRRMYNLFWRHFRHSEKVHVNLLLLEARMQAALLYALRAITRYMT
B5: binds [1].

B6: His-MBP-WDR59 Ring (924–974) (domain or fragment, UniProt Q6PJI9 924-974, looked up)
chain: {His-MBP}-CAICHVAVRGSSNFCLTCGHGGHTSHMMEWFRTQEVCPTGCGCHCLLESTF
modifications: cysteine pairing not given here; reading uncertain
B6: binds (GST-Mios Ring (785–875)).

{His-MBP}-CAVCHHVVKGLFVWCQGCSHGGHLQHIMKWLEGSSHCPAGCGHLCEYS (domain or fragment, UniProt Q96S15 743-790, looked up, cysteine pairing not given here; reading uncertain) [His-MBP-WDR24 Ring (743–790)]: binds (GST-Mios Ring (785–875)).
